Test results published in publication PMC7330101.

Molecular target: SUN2 (human (endogenous in HUVECs)) (UniProt Q9UH99)
Experiment: proximity ligation; Duolink in situ PLA on fixed, saponin-permeabilised HUVECs with primary antibodies against SUN2 and Nesprin1; cells exposed to PS (12 ± 4 dynes/cm^2) or OS (0.5 ± 4 dynes/cm^2) for 6 h

Sequence of UniProt Q9UH99 (Q9UH99 whole entry): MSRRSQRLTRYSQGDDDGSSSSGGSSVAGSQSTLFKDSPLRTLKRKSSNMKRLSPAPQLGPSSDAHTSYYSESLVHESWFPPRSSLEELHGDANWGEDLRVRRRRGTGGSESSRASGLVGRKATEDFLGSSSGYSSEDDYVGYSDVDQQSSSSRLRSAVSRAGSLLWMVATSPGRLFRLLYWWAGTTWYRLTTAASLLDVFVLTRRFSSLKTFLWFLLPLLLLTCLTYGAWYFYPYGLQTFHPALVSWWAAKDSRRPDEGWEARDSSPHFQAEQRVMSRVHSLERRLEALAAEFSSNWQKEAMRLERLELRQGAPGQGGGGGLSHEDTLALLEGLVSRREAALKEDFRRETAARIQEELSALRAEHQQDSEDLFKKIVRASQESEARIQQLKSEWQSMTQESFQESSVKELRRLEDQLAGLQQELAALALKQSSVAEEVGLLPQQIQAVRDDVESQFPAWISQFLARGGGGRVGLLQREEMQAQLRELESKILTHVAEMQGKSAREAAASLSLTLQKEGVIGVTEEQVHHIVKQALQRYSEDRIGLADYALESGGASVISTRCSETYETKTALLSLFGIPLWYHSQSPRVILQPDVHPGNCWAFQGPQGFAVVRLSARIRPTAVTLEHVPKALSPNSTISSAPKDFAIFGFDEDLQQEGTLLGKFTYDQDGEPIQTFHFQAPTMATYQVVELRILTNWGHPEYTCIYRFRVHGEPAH

PLA punctuated signals per cell (cells exposed to OS): 2 per cell
PLA punctuated signals per cell (cells exposed to PS): 7 per cell
Substance: Nesprin1, Q8NF91 1-8797
